# Experiments:
# [1] = biological target: HSPA8-GST (recombinant full-length monkey HSPA8 with GST tag) (monkey)
# [2] = biological target: HSPA8-GST (recombinant full-length monkey HSPA8 with GST tag) (monkey); remark: listed apart in the source
substance,measurement,setting,value
PRRSV virions (PRRSV-2 strain BJ-4) (complex),"PRRSV RNA abundance (RT-qPCR, 24 h) in MARC-145 cells after PRRSV (0.1 MOI) was pre-incubated with soluble HSPA8-GST (0.5, 1, 2 μM); GST protein 2 μM as control",[1],50 % reduction
same,PRRSV infectivity (IFA) in MARC-145 cells whose surface HSPA8 (endogenous) was blocked with 16- and 32-fold diluted mouse HSPA8-GST pAbs,[2],75 % decrease
same,PRRSV titers (TCID50) in MARC-145 cells whose surface HSPA8 (endogenous) was blocked with 16-fold diluted mouse HSPA8-GST pAbs; decrease (log10TCID50/mL),[2],1

# From article PMC8826899
